Source: US20150258194A1, “MODULATING TRANSENDOTHELIAL MIGRATION AND RECRUITMENT OF GRANULOCYTES BY MODULATING C-MET PATHWAY” (VIB VZW, priority 2012, published 2015)
Blank lines part the entries; values can stand above or below the molecule they belong to.

Columns and labels:
[1] = system: LLC cancer cells; assay: Cytotoxicity assay: LLC cancer cell killing by neutrophils; assay type: cell-based, mouse
Description: Cytotoxicity assay: LLC-shMet were transduced with a luciferase-expressing lentivirus (EXhLUC-Lvl 14 from GeneCopoeia); 104 LLC were seeded in DMEM 10% FBS in 96-multiwell. After 4 h, 0.2×10^6 neutrophils purified from the blood of LLC-tumor bearing mice or sorted from LLC-tumors were co-cultured with the LLC in DMEM 2% FBS for 4 hours at 37° C., with or without 100 ng/ml HGF or 1 mM L-NMMA (SIGMA). After washing, adherent cells were lysate in 0.2% Tryton 1 mM DTT.

[2] = system: Met expression in neutrophils; assay: Q-PCR / Western blot of Met expression in mouse neutrophils; assay type: cell-based; conditions: naïve mouse neutrophils
Description: Western blot: 2×10^6 bone marrow neutrophils from WT mice were stimulated with TCM, CCM, 100 ng/ml of murine TNF-α (or mock medium 0% FBS or 10% FBS as control) for 20 hours at 37° C. For the co-culture with HUVEC, a monolayer of HUVEC was stimulated for 4 hours with 5 ng/ml IL-1 at 37° C., and washed before neutrophil seeding. After 20 hours of stimulation, neutrophils were collected using Cell Dissociation Buffer, Enzyme Free, PBS-Based (Gibco). Cells were washed in PBS, lysed in 15 μl of a protease inhibitor mixture and incubated for 15 minutes on ice. The stock solution was obtained by dissolving one tablet of Complete Mini protease inhibitor mixture (CI, Roche) in 5 ml of PBS with 2 mM diisopropyl fluorophosphate (DFP; Acros Organics, Morris Plains, N.J.). After addition of an equal amount of 2×SDS sample buffer supplemented with 4% 2-mercaptoethanol, the lysates were boiled for 15 minutes and kept at -80° C. until use. 30×10^6 neutrophils purified from healthy volunteer blood and stimulated with A549-CM, 100 ng/ml of human TNF-α, 50 ng/ml LPS (or mock medium 10% FBS as control) for 20 hours. Cells were incubated with DFP 2.7 mM for 15' at 4° C., collected and washed in PBS, DFP 2.7 mM, CI 1X, and lysed in hot […] buffer (25% SDS 10%, 25% Tris-HCl pH 6.8) at 96° C. for 10'. Cell lysates were sonicated, cleared and quantified. 6× loading buffer was added before loading on the gel. The following antibodies were used: mouse anti-mouse Met (clone 3D4; Invitrogen), mouse anti-mouse β-actin (Santa Cruz), rabbit anti-human Met (clone D1C2-XP; Cell Signaling), HRP-conjugated anti-beta-tubulin (Abcam). Signal was visualized by Enhanced Chemiluminescent Reagents (ECL, Invitrogen) or West Femto by Thermo Scientific according to the manufacturer's instructions. Quantitative RT-PCR: for mRNA analysis, 1×10^5 or 3×10^5 mouse or human neutrophils, respectively, were incubated in normoxic (21% oxygen) or hypoxic condition (1% oxygen) or stimulated with TCM (plus 50 μg/ml Enbrel or human IgG when indicated), CCM, A549-CM, 100 ng/ml of murine or human TNF-α, 50 ng/ml LPS, or mock medium in 96-multiwell for 4 hours at 37° C. 2×10^5 HUVEC were seeded in 24-multiwell coated with 0.1% gelatin and stimulated with 5 ng/ml IL-1 in DMEM 10% FBS for 4 hours at 37° C. Cells were washed in PBS, collected in RLT buffer (QIAGEN®) and kept at -80° C. RNA was extracted with an RNase Micro kit (QIAGEN®) according to manufacturer's instructions. Reverse transcription to cDNA was performed with the SuperScript III Reverse Transcriptase (Invitrogen) according to manufacturer's protocol. […]

[3] = target: MET (c-Met, HGF receptor) on mouse neutrophils (mouse) (UniProt P16056); assay: cell-based or functional assay
[4] = system: Ly6G+ cells; assay: Air pouch assay: neutrophil exudation into subcutaneous air pouches; assay type: in vivo; conditions: 200 ng/mouse, 4 hours; for recruitment of Ly6G+ cells into air pouch: WT→WT mice
Description: Air Pouch Assay: to create subcutaneous air pouches, bone marrow transplanted WT and KO mice were injected with 3 ml of sterile air by dorsal subcutaneous injection with a butterfly 23G needle on day 0 and on day 3. On day 6, 200 ng/mouse of CXCL1 or murine HGF in 0.5 ml PBS-Heparin or PBS-Heparin as control, were injected in the dorsal camera created with the previous injection. After 4 hours, inflammatory cells were harvested by washing the pouch with 8 ml of PBS. Cells were stained with Ly6G-APC, washed and resuspended in PBS-BSA 0.1% with unlabeled counting beads and quantified with FACS Canto II (BD Bioscience).

[5] = system: neutrophils; assay: Transmigration and migration assay of neutrophils; assay type: cell-based, mouse
Description: Transmigration and Migration Assay: For the transmigration assay, 2×10^5 HUVEC were seeded on 3 μm polycarbonate membrane (Transwell; Costar) previously coated with 0.1% gelatin in M199 20% FBS. After 12 h, HUVEC were stimulated for 4 hours at 37° C. in DMEM 10% FBS with 5 ng/ml IL-1 and then washed. 5×105 WBC were seeded on top of the endothelial monolayer, while mock medium (+/− decoy Met), TCM (+/− decoy Met) or 50 ng/ml murine HGF was added in the bottom. After 2 hours at 37° C., transmigrated cells were collected from the lower chambers and from the bottom part of the filter with cold PBS 0.5% EDTA. Cells were stained and Ly6G+ cells quantified as above. In the migration assays WBC were seeded directly on top of 3 μm polycarbonate porous membranes.

[6] = system: β2-integrin; assay: Soluble ICAM-1 binding assay and co-immunoprecipitation of active β2-integrin; assay type: cell-based
[7] = system: neutrophils; assay: Adhesion assay: neutrophil adhesion to HUVEC; assay type: cell-based, mouse
Description: Adhesion Assay: 4×10^4 HUVEC were seeded in M199 20% FBS in 96-multiwell previously coated with 0.1% gelatin. After 12 h, HUVEC were stimulated with 5 ng/ml IL-1 in DMEM 10% FBS at 37° C. After 4 hours the endothelial monolayer was thoroughly washed and 2.5×105 WBC were seeded on top, with or without murine HGF (50 ng/ml). After 15′ non-adherent cells were washed out whereas adherent cells were detached by using Cell Dissociation Buffer, Enzyme Free, PBS-Based (Gibco). Cells were stained with Ly6G-APC, washed and resuspended in PBS-BSA 0.1% with unlabeled counting beads (BD Bioscience) and quantified with FACS Canto II (BD Bioscience).

[8] = system: neutrophils; assay: Nitric oxide measurement by FACS (DAF-FM) in neutrophils; assay type: cell-based, mouse; conditions: HGF 100 ng/ml
Description: Nitric oxide measurement by FACS: neutrophils isolated from the blood of WT or KO LLC tumor bearing mice were co-cultured for 4 hours with LLC shMet, washed, and resuspended in PBSHepes 20 mM, incubated for 10′ with 5 μM DAF-FM diacetate (Molecular probes) in the absence or presence of HGF (100 ng/ml) at 37° C., washed and analyzed by FACS.

Molecule: CNC(=N)NCCC[C@H](N)C(=O)O [L-NMMA, reference compound]
HGF-induced cytotoxicity of neutrophils ([1]; HGF 100 ng/ml plus 1 mM L-NMMA): decreased HGF-induced cytotoxicity to the level of Met KO neutrophils
cytotoxicity of intratumoral WT neutrophils against cancer cells ([1]; neutrophils sorted from LLC tumors, 1 mM L-NMMA): decreased the cytotoxicity of WT neutrophils to the levels of KO neutrophils

Molecule: TNF-a
upregulation of MET at RNA and protein levels [2]: able to upregulate MET

adhesion of neutrophils to an activated endothelium (HUVEC pre-stimulated with IL-1), FACS count [3]: 48%
Molecule: Hepatocyte Growth Factor (HGF), murine (from UniProt Q08048 33-728) (ligand)

B1: CXCL1: well-known neutrophil chemoattractant, positive control of neutrophil migration (protein, UniProt P12850 25-96, looked up)
Growth-regulated alpha protein: APIANELRCQCLQTMAGIHLKNIQSLKVLPSGPHCTQTEVIATLKNGREACLDPEAPLVQKIVQKMLKGVPK
recruitment of neutrophils into air pouch in KO→WT mice [4]: did not change
recruitment of Ly6G+ cells into air pouch [4]: equally good in recruiting Ly6G+ cells

B2: decoy MET: soluble HGF-trap consisting of the extracellular portion of MET (protein, UniProt P08581 25-932, looked up)
extracellular domain: ECKEALAKSEMNVNMKYQLPNFTAETPIQNVILHEHHIFLGATNYIYVLNEEDLQKVAEYKTGPVLEHPDCFPCQDCSSKANLSGGVWKDNINMALVVDTYYDDQLISCGSVNRGTCQRHVFPHNHTADIQSEVHCIFSPQIEEPSQCPDCVVSALGAKVLSSVKDRFINFFVGNTINSSYFPDHPLHSISVRRLKETKDGFMFLTDQSYIDVLPEFRDSYPIKYVHAFESNNFIYFLTVQRETLDAQTFHTRIIRFCSINSGLHSYMEMPLECILTEKRKKRSTKKEVFNILQAAYVSKPGAQLARQIGASLNDDILFGVFAQSKPDSAEPMDRSAMCAFPIKYVNDFFNKIVNKNNVRCLQHFYGPNHEHCFNRTLLRNSSGCEARRDEYRTEFTTALQRVDLFMGQFSEVLLTSISTFIKGDLTIANLGTSEGRFMQVVVSRSGPSTPHVNFLLDSHPVSPEVIVEHTLNQNGYTLVITGKKITKIPLNGLGCRHFQSCSQCLSAPPFVQCGWCHDKCVRSEECLSGTWTQQICLPAIYKVFPNSAPLEGGTRLTICGWDFGFRRNNKFDLKKTRVLLGNESCTLTLSESTMNTLKCTVGPAMNKHFNMSIIISNGHGTTQYSTFSYVDPVITSISPKYGPMAGGTLLTLTGNYLNSGNSRHISIGGKTCTLKSVSNSILECYTPAQTISTEFAVKLKIDLANRETSIFSYREDPIVYEIHPTKSFISGGSTITGVGKNLNSVSVPRMVINVHEAGRNFTVACQHRSNSEIICCTTPSLQQLNLQLPLKTKAFFMLDGILSKYFDLIYVHNPVFKPFEKPVMISMGNENVLEIKGNDIDPEAVKGEVLKVGNKSCENIHLHSEAVLCTVPNDLLKLNSELNIEWKQAISSTVLGKVIVQPDQNFT
modifications: extracellular domain
TCM-induced transendothelial migration of Met KO neutrophils ([5]; Met KO neutrophils, TCM, decoy Met): did not further impair the migration of Met KO neutrophils
TCM-promoted transendothelial migration of WT neutrophils ([5]; WT neutrophils, TCM, decoy Met 0.5 ng/μl): abated this effect

active β2-integrin (immunoprecipitation) ([6]; upon HGF stimulation): more active Iβ2-integrin
B3: HGF: Hepatocyte Growth Factor, the ligand of the MET tyrosine kinase receptor (protein)
chain: QKKRRNTLHEFKKSAKTTLTKEDPLLKIKTKKVNSADECANRCIRNRGFTFTCKAFVFDKSRKRCYWYPFNSMSSGVKKGFGHEFDLYENKDYIRNCIIGKGGSYKGTVSITKSGIKCQPWNSMIPHEHSFLPSSYRGKDLQENYCRNPRGEEGGPWCFTSNPEVRYEVCDIPQCSEVECMTCNGESYRGPMDHTESGKTCQRWDQQTPHRHKFLPERYPDKGFDDNYCRNPDGKPRPWCYTLDPDTPWEYCAIKTCAHSAVNETDVPMETTECIQGQGEGYRGTSNTIWNGIPCQRWDSQYPHKHDITPENFKCKDLRENYCRNPDGAESPWCFTTDPNIRVGYCSQIPKCDVSSGQDCYRGNGKNYMGNLSKTRSGLTCSMWDKNMEDLHRHIFWEPDASKLNKNYCRNPDDDAHGPWCYTGNPLIPWDYCPISRCEGDTTPTIVNLDHPVISCAKTKQLRVVNGIPTQTTVGWMVSLKYRNKHICGGSLIKESWVLTARQCFPARNKDLKDYEAWLGIHDVHERGEEKRKQILNISQLVYGPEGSDLVLLKLARPAILDNFVSTIDLPSYGCTIPEKTTCSIYGWGYTGLINADGLLRVAHLYIMGNEKCSQHHQGKVTLNESELCAGAEKIGSGPCEGDYGGPLICEQHKMRMVLGVIVPGRGCAIPNRPGIFVRVAYYAKWIHKVILTYKL
percentage of granulocytes bound to ICAM-1 ([6]; soluble ICAM-1 binding assay): increases the percentage of granulocytes bound to ICAM-1
transendothelial migration of Met KO neutrophils ([5]; Met KO neutrophils, inflamed-like endothelium): completely lost this response to HGF
transendothelial migration (chemotaxis) of WT neutrophils ([5]; WT neutrophils, inflamed-like endothelium, HGF 50 ng/ml): promoted their chemotaxis through an inflamed-like endothelium
migration of neutrophils through a naked porous membrane or a non-activated endothelium ([5]; no activated endothelium): did not influence the migration of neutrophils
adhesion of Met KO neutrophils to an activated endothelium ([7]; Met KO neutrophils, HUVEC (IL-1)): did not modify the behavior of KO cells
increase of adhesion of WT neutrophils to an activated endothelium ([7]; WT neutrophils, HUVEC (IL-1), HGF 50 ng/ml): 48%
neutrophil adhesion to nonactivated ECs ([7]; nonactivated ECs): not affected
cytotoxicity of KO neutrophils ([1]; Met KO circulating neutrophils with LLC, HGF 100 ng/ml): not
cytotoxicity of WT neutrophils ([1]; WT circulating neutrophils with LLC, HGF 100 ng/ml): augmented
upregulation of MET at RNA and protein levels [2]: not
recruitment of neutrophils into air pouch in KO→WT mice [4]: completely abolished
recruitment of Ly6G+ cells into air pouch [4]: equally good in recruiting Ly6G+ cells
NO release of KO neutrophils ([8]; Met KO circulating neutrophils with LLC): not
NO release of WT neutrophils ([8]; WT circulating neutrophils with LLC): augmented
